Each binder was assayed against HLA-A*0201 on the surface of T2 cells (human) (assay: T2 peptide binding assay, W6/32-FITC flow cytometry).

| peak fluorescence, % of the level obtained with NS3 1406-1415 [%] | Binder |
| --- | --- |
| 79.2 | CCRAGALDWVCARRE (modifications not checked) [F protein peptide F37-51] |
| 87.6 | VRSLVEFTCCRAGAL (modifications not checked) [F protein peptide F29-43] |
| 83.2 | PVALGLAGAPQTPGV (modifications not checked) [F protein peptide F101-115] |
